Measurements taken from article PMC2854129, “Spadin, a Sortilin-Derived Peptide, Targeting Rodent TREK-1 Channels: A New Concept in the Antidepressant Drug Design” (PLoS Biology, 2010).
Where no end group is shown, it is not given here. The star is where a group is joined. 125I = radioactive iodine label on Tyr, [125I]*

Columns and labels:
[1] = target: NTSR3/Sortilin (UniProt Q99523); conditions: cited from earlier work
[2] = tested on: non-transfected COS-7 cells; experiment: 125I-spadin binding to non-transfected COS-7 cells
[3] = target: T1, TREK-1 (Mus musculus, UniProt P97438); experiment: Association kinetics and internalization of 125I-spadin on whole COS-7 cells expressing TREK-1; assay type: cell-based; design: expressed in transfected cells; host or cells: COS-7 cells, DEAE-dextran transfection; conditions: 37°C; for intracellular (acid-NaCl wash resistant) fraction of total bound 125I-spadin: 30 min, acid-NaCl wash 2 min
T1 sequence (P97438 1-426): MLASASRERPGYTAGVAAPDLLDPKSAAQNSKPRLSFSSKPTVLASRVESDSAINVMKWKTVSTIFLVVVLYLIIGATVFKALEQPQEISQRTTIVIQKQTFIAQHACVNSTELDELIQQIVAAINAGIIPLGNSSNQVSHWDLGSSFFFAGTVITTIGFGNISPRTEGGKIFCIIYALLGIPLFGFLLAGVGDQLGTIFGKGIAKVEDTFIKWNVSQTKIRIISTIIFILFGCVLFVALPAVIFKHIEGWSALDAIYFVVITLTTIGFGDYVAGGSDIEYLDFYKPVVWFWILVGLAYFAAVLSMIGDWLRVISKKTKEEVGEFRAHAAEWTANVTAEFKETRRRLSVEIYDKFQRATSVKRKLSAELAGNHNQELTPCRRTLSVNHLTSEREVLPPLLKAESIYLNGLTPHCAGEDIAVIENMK
Protocol: Cells, grown on 12 mm multiwell-dishes, were incubated with 0.2 nM ^125I-spadin for various times at 37°C in an Earle's Tris-Hepes buffer (cell binding buffer). Incubations were terminated by washing cells twice with the binding buffer or with the same buffer containing 0.5 M NaCl, pH 4, for 2 min to remove non-sequestrated radioactivity (acid-NaCl wash). Cells were harvested with 1 ml of 0.1 N NaOH and counted in a gamma-counter. Non-specific binding was determined in the presence of 10 µM unlabeled spadin.

[4] = target: TREK-1 channel (KCNK2), transfected in COS-7 cells (mouse) (UniProt P97438)
[5] = target: T1, TREK-1; experiment: Whole-cell patch-clamp, TREK-1 transfected COS-7 cells; assay type: cell-based; design: GFP; expressed in transfected cells; host or cells: COS-7 cells, DEAE-dextran transfection; conditions: 10 µM aa
Protocol: All electrophysiological experiments were done on COS-7 cells seeded at a density of 20,000 cells/35-mm dish 24 h before transfection. Cells were transfected by the classical DEAE-dextran method with TREK-1-GFP plasmids (0.1 µg/µL). Cells were visualized 48–72 h after transfection using fluorescence.
The whole-cell patch-clamp technique was used to evaluate TREK-1 potassium channel current by using a RK 400 patch-clamp amplifier (Axon Instruments, USA), as previously described. Currents were lowpass filtered at 3 kHz, digitized at 10 kHz using a 12-bit analog-to-digital converter. […] The bath solution contained (in mM) 150 NaCl, 5 KCl, 3 MgCl2, 1 CaCl2, and 10 HEPES, adjusted to pH 7.4 with NaOH; the patch pipette solution contained (in mM) 155 KCl, 3 MgCl2, 5 EGTA, and 10 HEPES, adjusted to pH 7.2 with KOH. Cells were clamped at −80 mV and voltage changes were either applied by ramp (from −100 to 50 mV, 1 s in duration) or by step (from −100 to 40 mV, 1.5 s in duration). Cells were continuously superfused with a microperfusion system. The pipette capacitance was not subtracted from total membrane capacitance and there was no leak subtraction. […]
Pclamp software was used to analyze currents recorded in the whole-cell mode measured at 0 mV. Results are expressed as means ± SD. […]

[6] = target: T1, TREK-1; experiment: Competition binding, 125I-spadin, TREK-1 transfected COS-7 cell homogenates; design: expressed in transfected cells; host or cells: COS-7 cells, DEAE-dextran transfection; conditions: 0.2 nM 125I-spadin; TREK-1 transfected COS-7 homogenates; Tris-HCl pH 7.4, 0.1% BSA; mean of duplicates from 2 to 5 independent experiments
Protocol: For competition experiments, homogenates from TREK-1 transfected COS-7 or C13NJ cells were incubated with 0.2 nM ^125I-spadin or ^125I-NT (200,000 cpm in 250 µl) iodinated and purified as previously described. Incubations were performed in 50 mM Tris-HCl, pH 7.4 containing 0.1% BSA in the presence of increasing concentrations of non-radioactive spadin or NT (10^−10 to 10^−5M). Incubations were terminated by addition of 2 ml of ice-cold binding buffer followed by filtration through cellulose acetate filters (Sartorius, Göttingen, Germany) and washing twice with 2 ml of ice-cold buffer. Radioactivity on filters was counted with a gamma-counter.

[7] = tested on: TREK-1; experiment: Whole-cell patch-clamp, cultured hippocampal pyramidal neurons; assay type: cell-based, mouse; conditions: 10 µM aa, K+ blockers, 7 out of 70 recorded neurons, at −50 mV
Protocol: Cortical neurons were prepared from 14 old mouse embryos, whereas hippocampal neurons were prepared from newborn mice. Briefly, dissected brain areas were dissociated and neurons were plated on polylysine-treated 35 or 60 mm dishes and maintained in culture in Neurobasal medium supplemented with B27, Glutamax, and antibiotics for 2 to 3 wk before to be used for electrophysiological or biochemical experiments.
Supplementary file pbio.1000355.s004.tif: Figure S4 Effects of spadin on cultured pyramidal neurons from hippocampus. (A) Cultured pyramidal neuron from hippocampus, with on top, the patch-clamp pipette. Neurons were chosen according to their morphology. (B) Current recorded in response to ramps of potential obtained in the various conditions indicated (aa, arachidonic acid: 10 µM; Spadin: 1 µM; Fluoxetine: 20 µM). Neurons were recorded in the whole-cell configuration of the patch-clamp technique. In voltage-clamp, ramps of potential from −90 mV to 70 mV were applied every 10 s. The % variation of the current amplitude was always measured at −50 mV. The currents were recorded in response to such ramps in control conditions and in the presence of a cocktail of potassium blockers suitable to isolate the TREK currents (10 mM tetraethyl ammonium (TEA), 3 mM 4-aminopyridine (4-AP), 50 nM charybdotoxin, 10 µM glibenclamide, 100 nM apamin). […] The blocks were reversible. (C) Time course of spadin and fluoxetine effects. Applications are indicated by the horizontal bars. (2.03 MB TIF) Click here for additional data file.

[8] = tested on: TREK-1 channel; experiment: Whole-cell patch-clamp, hippocampal CA3 pyramidal neurons in brain slices, wild-type mice; assay type: cell-based, mouse; conditions: 12 out of 28 recorded neurons; K+ blockers; aa 10 µM; mean ± SEM, n = 12
[9] = target: T2, TREK-1 (Mus musculus, UniProt P97438); experiment: radioligand binding
T2 chain: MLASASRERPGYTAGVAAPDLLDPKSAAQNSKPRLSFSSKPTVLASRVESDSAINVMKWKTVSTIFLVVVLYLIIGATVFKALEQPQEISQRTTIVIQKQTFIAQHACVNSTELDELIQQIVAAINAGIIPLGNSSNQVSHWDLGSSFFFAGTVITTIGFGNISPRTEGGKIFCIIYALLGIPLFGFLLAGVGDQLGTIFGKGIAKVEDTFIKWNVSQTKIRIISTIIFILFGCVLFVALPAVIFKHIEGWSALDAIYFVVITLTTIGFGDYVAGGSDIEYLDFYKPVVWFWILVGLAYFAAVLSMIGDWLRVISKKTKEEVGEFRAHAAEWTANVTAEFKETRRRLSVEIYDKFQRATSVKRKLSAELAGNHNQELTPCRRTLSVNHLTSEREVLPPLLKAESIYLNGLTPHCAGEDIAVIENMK

[10] = target: T2, TREK-1; experiment: radioligand competition

Chain of sortilin propeptide 1-44 (Q99523 34-77): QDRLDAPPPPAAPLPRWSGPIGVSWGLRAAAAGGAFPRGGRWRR
Chain of NTSR3/Sortilin (Q99523 78-755): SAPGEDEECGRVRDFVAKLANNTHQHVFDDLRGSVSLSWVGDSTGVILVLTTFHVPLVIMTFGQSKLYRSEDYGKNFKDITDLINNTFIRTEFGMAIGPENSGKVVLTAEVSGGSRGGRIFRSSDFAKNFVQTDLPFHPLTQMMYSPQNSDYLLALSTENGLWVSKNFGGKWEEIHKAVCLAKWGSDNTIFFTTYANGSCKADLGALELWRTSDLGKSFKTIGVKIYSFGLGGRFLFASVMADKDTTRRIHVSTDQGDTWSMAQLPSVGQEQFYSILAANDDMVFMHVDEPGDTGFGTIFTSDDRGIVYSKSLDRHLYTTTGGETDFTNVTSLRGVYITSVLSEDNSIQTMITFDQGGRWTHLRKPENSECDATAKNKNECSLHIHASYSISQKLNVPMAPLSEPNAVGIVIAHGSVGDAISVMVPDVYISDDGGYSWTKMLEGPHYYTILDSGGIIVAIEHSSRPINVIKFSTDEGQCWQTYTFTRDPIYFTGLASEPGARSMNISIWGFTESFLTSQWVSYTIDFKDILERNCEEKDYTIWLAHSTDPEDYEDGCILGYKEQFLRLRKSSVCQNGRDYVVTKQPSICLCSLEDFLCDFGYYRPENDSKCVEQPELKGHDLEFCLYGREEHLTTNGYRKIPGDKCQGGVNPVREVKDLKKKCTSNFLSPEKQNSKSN

sortilin propeptide 1-44 (from UniProt Q99523)
Kd [1]: 0.005 µM

^125I-spadin: monoiodinated spadin (on Tyr0), HPLC purified (Y(125I)APLPRWSGPIGVSWGLR)
125I-spadin binding [2]: totally devoid of ^125I-Spadin binding | time to plateau of cell-associated radioactivity ([3]; 0.2 nM 125I-spadin, whole COS-7 cells expressing TREK-1): ≤ 30 min | intracellular (acid-NaCl wash resistant) fraction of total bound 125I-spadin [3]: 80% | intracellular (acid-NaCl wash resistant) fraction of total bound 125I-spadin ([3]; listed as 125I-labelled spadin): about 80%

full length propeptide of NTSR3/Sortilin (Gln1-Arg44)
block of the arachidonic acid-stimulated TREK-1 current at 0 mV, whole-cell patch clamp, TREK-1 transfected COS-7 cells, 500 nM propeptide [4]: 41%

QDRLDAPPPPAAPLPR [Gln1-Arg16, N-terminal fragment of the full length propeptide]
effect on aa-induced current increase ([5]; after 90 s of application, Figure S2): unable to inhibit the current increase | affinity for TREK-1 [6]: 1 µM

CCCCC/C=C\C/C=C\C/C=C\C/C=C\CCCC(=O)O [arachidonic acid]
increase of remaining current by arachidonic acid [7]: about 50% | activation of TREK-1 basal channel activity ([5]; as previously described [21]): strongly and reversibly activated | increase in amplitude of remaining current by arachidonic acid [8]: 23.3%±4.8%

APLPRWSGPIGVSWGLR [spadin]
Kd [9]: ~0.01 µM

QDRLDAPPPPAAPLPR [propeptide N-terminal fragment Gln1-Arg16 1-16]
Kd [10]: 1 µM
